# Changes are numbered by the printed parent chain. Names may count otherwise.
# T1: EsCas13d, nuclease-dead (Eubacterium siraeum, UniProt B0MS50, R295A;H300A;R849A;H854A)
# T1 sequence: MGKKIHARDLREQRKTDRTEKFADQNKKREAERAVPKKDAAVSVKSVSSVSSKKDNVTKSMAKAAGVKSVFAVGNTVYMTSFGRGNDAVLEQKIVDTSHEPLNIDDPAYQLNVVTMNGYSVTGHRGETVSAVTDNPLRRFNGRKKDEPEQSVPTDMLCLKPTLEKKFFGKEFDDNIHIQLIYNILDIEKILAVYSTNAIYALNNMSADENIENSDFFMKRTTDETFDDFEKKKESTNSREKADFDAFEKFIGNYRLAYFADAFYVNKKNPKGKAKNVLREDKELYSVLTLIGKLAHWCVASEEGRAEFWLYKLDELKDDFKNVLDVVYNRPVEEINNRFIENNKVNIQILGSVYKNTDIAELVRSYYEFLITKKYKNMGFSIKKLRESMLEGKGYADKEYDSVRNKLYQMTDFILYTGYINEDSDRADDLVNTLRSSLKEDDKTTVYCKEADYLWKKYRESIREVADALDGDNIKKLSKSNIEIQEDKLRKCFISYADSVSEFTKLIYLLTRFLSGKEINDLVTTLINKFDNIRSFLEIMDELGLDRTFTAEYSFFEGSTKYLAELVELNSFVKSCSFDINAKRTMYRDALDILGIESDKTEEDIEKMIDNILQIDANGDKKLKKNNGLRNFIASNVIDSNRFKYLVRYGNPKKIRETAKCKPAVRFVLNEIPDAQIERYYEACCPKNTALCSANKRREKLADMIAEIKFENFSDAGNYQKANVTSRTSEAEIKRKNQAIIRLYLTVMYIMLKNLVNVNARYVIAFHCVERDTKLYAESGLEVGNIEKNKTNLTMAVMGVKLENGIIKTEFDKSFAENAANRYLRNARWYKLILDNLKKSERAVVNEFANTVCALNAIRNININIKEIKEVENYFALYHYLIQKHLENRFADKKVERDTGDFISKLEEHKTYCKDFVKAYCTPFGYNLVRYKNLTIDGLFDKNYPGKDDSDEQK
# B1: target 1 insG 3' of 11,insC 3' of 8 (mixed)
# RNA 1: CACCCGUGCAAAAAUGCAGGGGUCUAAAACUGAGCGGAUAACCUCUCUAUGG
# RNA 2: GGGAAUGGAUCCACAUCUACGAAUUCGUACCAUAGAGAGGUGUAUCCCGCUCACCGAGAUCGGAAGAGCACACGU
# B2: target 1 C7A,G12C (mixed)
# RNA 1: B1 RNA 1
# RNA 2: GGGAAUGGAUCCACAUCUACGAAUUCGUACCAUAGAGAGCUUAUACGCUCACCGAGAUCGGAAGAGCACACGU
# B3: target 1 insU 3' of 13,insU 3' of 2 (mixed)
# RNA 1: B1 RNA 1
# RNA 2: B1 RNA 2 with G40U, U41G, G42U, C48G, G49C, C50U, U51C, C52U
# B4: target 1 C2U,U3G (mixed)
# RNA 1: B1 RNA 1
# RNA 2: B2 RNA 2 with C40G, A45C, U49G, C50U
# B5: target 1 G12A,G17C (mixed)
# RNA 1: B1 RNA 1
# RNA 2: B2 RNA 2 with G35C, C40A, A45C
# B6: target 1 insU 3' of 13,insC 3' of 5 (mixed)
# RNA 1: B1 RNA 1
# RNA 2: B1 RNA 2 with G40U, U41G, G42U, C48G, G49C
# B7: target 1 insC 3' of 20,insC 3' of 9 (mixed)
# RNA 1: B1 RNA 1
# RNA 2: GGGAAUGGAUCCACAUCUACGAAUUCGUACCACUAGAGAGGUUACUCCGCUCACCGAGAUCGGAAGAGCACACGU
# B8: target 1 insA 3' of 12,insG 3' of 2 (mixed)
# RNA 1: B1 RNA 1
# RNA 2: B1 RNA 2 with U41A, G42U, C48G, G49C, C50U, U51C, C52G
# B9: target 1 C7U,U19A (mixed)
# RNA 1: B1 RNA 1
# RNA 2: B2 RNA 2 with U33A, C40G, A45U
# B10: target 1 insU 3' of 20,insC 3' of 11 (mixed)
# RNA 1: B1 RNA 1
# RNA 2: B7 RNA 2 with C33U, U43C, A44U, C45A
# B11: target 1 insA 3' of 15,insG 3' of 6 (mixed)
# RNA 1: B1 RNA 1
# RNA 2: B1 RNA 2 with G39A, U41G, G42U, C48G
# B12: target 1 G5A,G12U (mixed)
# RNA 1: B1 RNA 1
# RNA 2: B2 RNA 2 with C40U, A45C, G47A
# B13: target 1 insC 3' of 18,insA 3' of 8 (mixed)
# RNA 1: B1 RNA 1
# RNA 2: B7 RNA 2 with C33U, U34A, A35C, C45U, U46A
# B14: target 1 insG 3' of 10,insU 3' of 7 (mixed)
# RNA 1: B1 RNA 1
# RNA 2: B1 RNA 2 with G42U, U43G, C47U
# B15: target 1 A9U,U10A (mixed)
# RNA 1: B1 RNA 1
# RNA 2: B2 RNA 2 with C40G, U42A, A43U, A45C
# B16: target 1 insC 3' of 19 (mixed)
# RNA 1: B1 RNA 1
# RNA 2: GGGAAUGGAUCCACAUCUACGAAUUCGUACCAUCAGAGAGGUUAUCCGCUCACCGAGAUCGGAAGAGCACACGU
# B17: target 1 insC 3' of 18 (mixed)
# RNA 1: B1 RNA 1
# RNA 2: B16 RNA 2 with C34A, A35C
# B18: target 1 insA 3' of 22,insU 3' of 13 (mixed)
# RNA 1: B1 RNA 1
# RNA 2: B7 RNA 2 with C31A, A32C, C33A, G41U, U42G, A44U, C45A
# B19: target 1 A9G,U19C (mixed)
# RNA 1: B1 RNA 1
# RNA 2: B2 RNA 2 with U33C, C40G, A43G, A45C
# B20: target 1 insC 3' of 12,insG 3' of 6 (mixed)
# RNA 1: B1 RNA 1
# RNA 2: B1 RNA 2 with U41C, G42U, C48G
# B21: target 1 G17A,C22A (mixed)
# RNA 1: B1 RNA 1
# RNA 2: B2 RNA 2 with C30A, G35A, C40G, A45C
# B22: target 1 insU 3' of 17,insG 3' of 8 (mixed)
# RNA 1: B1 RNA 1
# RNA 2: B7 RNA 2 with C33U, U34A, A35G, G36U, C45U, U46G
# B23: target 1 C4G,A9U (mixed)
# RNA 1: B1 RNA 1
# RNA 2: B2 RNA 2 with C40G, A43U, A45C, C48G
# B24: target 1 insU 3' of 20,insA 3' of 7 (mixed)
# RNA 1: B1 RNA 1
# RNA 2: B7 RNA 2 with C33U, C45U, U46C, C47A
# B25: target 1 insC 3' of 11,insG 3' of 7 (mixed)
# RNA 1: B1 RNA 1
# RNA 2: B1 RNA 2 with G42C, C47G
# B26: target 1 insG 3' of 7,insU 3' of 4 (mixed)
# RNA 1: B1 RNA 1
# RNA 2: B1 RNA 2 with G42U, U43A, A44U, U45C, C46G, C48G, G49C, C50U
# B27: target 1 C7U,A14C (mixed)
# RNA 1: B1 RNA 1
# RNA 2: B2 RNA 2 with A38C, C40G, A45U
# B28: target 1 insU 3' of 21,insC 3' of 10 (mixed)
# RNA 1: B1 RNA 1
# RNA 2: B7 RNA 2 with A32U, C33A, A44C, C45A
# B29: target 1 U3A,A9C (mixed)
# RNA 1: B1 RNA 1
# RNA 2: B2 RNA 2 with C40G, A43C, A45C, U49A
# Biological target: T1, EsCas13d, nuclease-dead
# Experiment: crRNA (strand 1, pre-loaded); Mg2+; 40 mM Tris-HCl pH 7.5, 150 mM NaCl, 6 mM MgCl2, 1 mM DTT, 0.1% Tween-20, 0.2 mg/ml BSA; 25 C; 10 min per concentration, then washed
# Details: tags: His6-TwinStrep-SUMO cleaved; N-terminal SNAP kept (SNAP-Surface 488); label: 3' end held by stalled T7 RNA polymerase
binder,measurement,value
B1,Kd,39 ± 6 nM
B2,Kd,16.4 ± 1.1 nM
B3,Kd,16.6 ± 2.1 nM
B4,Kd,21 ± 4 nM
B5,Kd,34 ± 8 nM
B6,Kd,21 ± 4 nM
B7,Kd,8.9 ± 0.6 nM
B8,Kd,30 ± 4 nM
B9,Kd,34 ± 4 nM
B10,Kd,62 ± 18 nM
B11,Kd,9.3 ± 0.5 nM
B12,Kd,14.4 ± 1.4 nM
B13,Kd,69 ± 10 nM
B14,Kd,21.8 ± 0.9 nM
B15,Kd,20.5 ± 2.1 nM
B16,Kd,26.9 ± 2.2 nM
B17,Kd,30.3 ± 1.9 nM
B18,Kd,20.6 ± 2.9 nM
B19,Kd,33.8 ± 3.3 nM
B20,Kd,9.1 ± 1.6 nM
B21,Kd,57 ± 7 nM
B22,Kd,21 ± 1.2 nM
B23,Kd,3.93 ± 0.23 nM
B24,Kd,9.9 ± 0.6 nM
B25,Kd,23.8 ± 1.5 nM
B26,Kd,6.4 ± 0.4 nM
B27,Kd,30 ± 4 nM
B28,Kd,51 ± 9 nM
B29,Kd,14.6 ± 2 nM
